The values that follow come from paper PMC3299731 (PLoS ONE, 2012).

As usually defined, the stoichiometry N is a count of units in the complex or per binding partner.

Series [1] deals with the molecule itself. The series is described as follows: SEC; purified homomeric 6×His-translin proteins on Superdex 200 10/300 GL calibrated with molecular weight markers (29-440 kDa); octamer.
Series [2] addresses T1, translin (human, UniProt Q15631 1-228). As to the kind of experiment: EMSA; 50 nM octamer, 100 nM DNA; 25 mM Tris-HCl pH 8.0, 100 mM NaCl, 1 mM EDTA, 30 min; temperature not stated; 4.5% native PAGE in 0.5x TBE. Particulars: protein: recombinant; tags: N-terminal 6xHis; chain copies: 8; label: 5'-32P (unlabeled in agarose EMSA). On the technique in general: A gel shift assay detects complexes by their altered migration in electrophoresis.

Series [3] concerns the target T1, translin. As to the kind of experiment: UV-laser crosslinking (248 nm); 50 pmol each in 50 uL; 25 mM Tris-HCl pH 8.0, 100 mM NaCl, 1 mM EDTA, 30 min; temperature not stated; 4.5% native PAGE in 0.5x TBE. Particulars: protein: recombinant; tags: N-terminal 6xHis; chain copies: 8; label: 5'-32P (unlabeled in agarose EMSA).

B1: Mutant of basic-2 motif of human translin, homomeric, N-terminal 6×His tag (natural protein, UniProt Q15631 1-228, looked up)
chain: MSVSEIFVELQGFLAAEQDIREEIRKVVQSLEQTAREILTLLQGVHQGAGFQDIPKRCLKAREHFGTVKTHLTSLKTKFPAEQYYTFNENWRFVLQRLVFLAAFVVYLETETLVTREAVTEILGIEPDREKGFHLDVEDYLSGVLILASELSRLSVNSVTAGDYSRPLHISTFINELDSGFRLLNLKNDSLRKRYDGLKYDVKKVEEVVYDLSIRGFNKETAAACVEK
notes: human translin with the B2 motif mutated, expressed from pQE9-translinB2; also called translinB2; translinB2 mutant; source: E. coli BL21(DE3), pQE9-translinB2, purified (Ni-IDA, Q-sepharose, Superdex 200); not shown: 6×His, N-terminal, kept
On to B1, for which, in series [1], the “stoichiometry N” value was found to be 8.

B2: Mutant of basic-3 motif of human translin, homomeric, N-terminal 6×His tag (natural protein, UniProt Q15631 1-228, looked up)
chain: MSVSEIFVELQGFLAAEQDIREEIRKVVQSLEQTAREILTLLQGVHQGAGFQDIPKRCLKAREHFGTVKTHLTSLKTKFPAEQYYRFHEHWRFVLQRLVFLAAFVVYLETETLVTREAVTEILGIEPDREKGFHLDVEDYLSGVLILASELSRLSVNSVTAGDYSRPLHISTFINELDSGFRLLNLKNDSLTNSNDGLKYDVKKVEEVVYDLSIRGFNKETAAACVEK
notes: human translin with the B3 motif mutated, expressed from pQE9-translinB3; also called translinB3; translinB3 mutant; source: E. coli BL21(DE3), pQE9-translinB3, purified (Ni-IDA, Q-sepharose, Superdex 200); not shown: 6×His, N-terminal, kept
Turning to B2, the “stoichiometry N” value in series [1] is 8. Regarding GCCCTCCTGCCCTCCTTCCGCGGG (ssDNA) [Bcl-CL1 24-mer], the binding result in the series with translin [2] and with translin [3] was “binds” in each case.
